Laboratory results reported in PMC10117100.

Key:
Gluc1-ΔNp73α FL (human) = Gluc1-ΔNp73α FL (human) (UniProt O15350); experiment: split reporter (BiFC, NanoBiT); Gaussia princeps protein complementation assay (GPCA): Gluc1 and Gluc2 N-terminal fusions co-transfected in HEK293T, luminescence of lysates after 48 h as normalized luminescence ratio (NLR); pairs count as interacting if NLR is above 5
[1] = molecular target: Gluc1-ΔN(1 to 433) (human); experiment: as above
Sequence of Gluc1-ΔN(1 to 433) (human) (O15350 other isoform, or with tags, fused parts or gaps mutant): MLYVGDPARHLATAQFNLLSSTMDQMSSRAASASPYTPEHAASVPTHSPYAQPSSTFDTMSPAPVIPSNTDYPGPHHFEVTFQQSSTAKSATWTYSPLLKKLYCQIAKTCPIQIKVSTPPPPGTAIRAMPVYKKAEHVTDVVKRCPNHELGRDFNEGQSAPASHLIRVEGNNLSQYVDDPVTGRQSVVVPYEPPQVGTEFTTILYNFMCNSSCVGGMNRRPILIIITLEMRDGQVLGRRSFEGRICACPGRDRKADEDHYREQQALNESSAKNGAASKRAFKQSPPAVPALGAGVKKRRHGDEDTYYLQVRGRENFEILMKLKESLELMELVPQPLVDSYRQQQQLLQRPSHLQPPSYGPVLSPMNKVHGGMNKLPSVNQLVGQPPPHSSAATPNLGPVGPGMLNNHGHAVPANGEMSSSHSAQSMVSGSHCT

Sequence of Gluc2-E2F(1 to 336) (Q16254 1-336): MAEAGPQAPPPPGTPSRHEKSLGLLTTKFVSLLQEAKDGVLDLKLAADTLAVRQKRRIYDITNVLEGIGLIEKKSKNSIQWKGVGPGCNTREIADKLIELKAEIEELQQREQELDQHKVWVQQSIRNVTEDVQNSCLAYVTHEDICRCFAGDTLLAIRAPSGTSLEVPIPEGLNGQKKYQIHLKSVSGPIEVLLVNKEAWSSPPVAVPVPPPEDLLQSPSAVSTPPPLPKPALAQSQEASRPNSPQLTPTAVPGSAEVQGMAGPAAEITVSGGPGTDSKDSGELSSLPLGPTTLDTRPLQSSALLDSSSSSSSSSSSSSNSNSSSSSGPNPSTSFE
Sequence of Gluc2-E2F4 FL (Q16254 whole entry): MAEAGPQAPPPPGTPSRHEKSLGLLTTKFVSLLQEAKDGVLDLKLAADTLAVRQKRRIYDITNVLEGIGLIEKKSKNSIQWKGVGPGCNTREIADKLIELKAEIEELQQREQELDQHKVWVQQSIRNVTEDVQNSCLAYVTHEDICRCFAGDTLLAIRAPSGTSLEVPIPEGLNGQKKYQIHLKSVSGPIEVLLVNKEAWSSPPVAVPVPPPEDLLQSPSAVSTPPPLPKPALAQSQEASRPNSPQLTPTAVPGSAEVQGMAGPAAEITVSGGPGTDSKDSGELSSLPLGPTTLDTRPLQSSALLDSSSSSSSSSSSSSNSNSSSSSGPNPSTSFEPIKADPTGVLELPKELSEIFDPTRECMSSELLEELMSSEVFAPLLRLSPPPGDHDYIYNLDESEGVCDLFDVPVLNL
Sequence of Gluc1-ΔNp73α FL (human) (O15350 other isoform, or with tags, fused parts or gaps mutant): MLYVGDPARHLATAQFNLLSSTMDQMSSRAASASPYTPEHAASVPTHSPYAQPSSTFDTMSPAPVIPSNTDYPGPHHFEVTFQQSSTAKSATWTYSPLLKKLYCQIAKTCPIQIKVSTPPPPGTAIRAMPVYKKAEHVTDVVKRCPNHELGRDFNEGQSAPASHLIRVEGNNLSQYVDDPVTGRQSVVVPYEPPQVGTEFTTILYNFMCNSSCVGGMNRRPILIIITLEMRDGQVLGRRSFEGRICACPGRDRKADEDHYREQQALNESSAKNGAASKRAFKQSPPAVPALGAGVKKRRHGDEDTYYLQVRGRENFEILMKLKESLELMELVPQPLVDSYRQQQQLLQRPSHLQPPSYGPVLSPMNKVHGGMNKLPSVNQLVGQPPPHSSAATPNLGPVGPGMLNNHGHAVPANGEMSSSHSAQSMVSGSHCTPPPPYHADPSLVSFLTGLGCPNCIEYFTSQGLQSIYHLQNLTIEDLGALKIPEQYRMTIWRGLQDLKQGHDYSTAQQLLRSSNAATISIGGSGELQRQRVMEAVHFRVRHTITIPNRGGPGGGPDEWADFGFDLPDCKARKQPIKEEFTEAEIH

| NLR normalized to the ΔNp73α-E2F4 FL interaction (Gluc1-ΔNp73α FL (human)) [%] | normalized luminescence ratio (NLR) [1] | Substance |
| --- | --- | --- |
| 60 | – | Gluc2-E2F(1 to 336) (from UniProt Q16254 1-336) (domain or fragment) |
| – | > 20 | Gluc2-E2F4 FL (from UniProt Q16254 1-413) (natural protein) |
